# Experimental data from publication PMC6220978, “Induced conformational changes activate the peptidoglycan synthase PBP1B” (Molecular Microbiology, 2018).
# T1: PBP1B (wild type, PBP1B^46-844) (E. coli, UniProt P02919 46-844)
# T1 construct: PBP1B, E. coli, residues 46-844, encoded on pDML924; Immobilised on the SPR chip as in Egan et al. 2014 / Gray et al. 2015; also called WT PBP1B; WT; source: E. coli BL21(DE3), purified (membrane extract, HisTrap, thrombin, HiTrap SP ion exchange)
# T1 sequence (looked up): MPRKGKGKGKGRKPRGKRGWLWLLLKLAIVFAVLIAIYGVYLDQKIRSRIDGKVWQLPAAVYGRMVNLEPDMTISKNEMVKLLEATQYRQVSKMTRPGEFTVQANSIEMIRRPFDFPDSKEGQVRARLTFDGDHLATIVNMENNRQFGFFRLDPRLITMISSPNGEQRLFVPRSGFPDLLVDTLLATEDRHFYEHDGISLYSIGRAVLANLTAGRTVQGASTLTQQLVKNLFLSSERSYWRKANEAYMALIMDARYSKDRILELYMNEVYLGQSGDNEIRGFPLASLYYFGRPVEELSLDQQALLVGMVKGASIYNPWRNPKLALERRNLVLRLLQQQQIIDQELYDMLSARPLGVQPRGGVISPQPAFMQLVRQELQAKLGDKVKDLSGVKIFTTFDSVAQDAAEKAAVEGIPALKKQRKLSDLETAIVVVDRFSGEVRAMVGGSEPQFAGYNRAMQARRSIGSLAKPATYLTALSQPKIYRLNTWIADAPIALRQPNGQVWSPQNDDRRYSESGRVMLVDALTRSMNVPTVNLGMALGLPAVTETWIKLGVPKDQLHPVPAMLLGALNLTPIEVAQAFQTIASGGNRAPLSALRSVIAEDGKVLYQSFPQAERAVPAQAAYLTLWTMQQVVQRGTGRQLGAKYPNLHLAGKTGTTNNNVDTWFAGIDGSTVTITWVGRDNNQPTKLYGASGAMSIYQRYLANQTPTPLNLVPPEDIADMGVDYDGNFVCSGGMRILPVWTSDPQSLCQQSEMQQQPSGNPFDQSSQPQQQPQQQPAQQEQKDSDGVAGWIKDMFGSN
# B1: CpoB^TPR (CpoB^139-263), C-terminal TetratricoPeptide Repeat domain of CpoB (domain or fragment, E. coli, UniProt P45955 139-263, looked up)
# chain: SGNANTDYNAAIALVQDKSRQDDAMVAFQNFIKNYPDSTYLPNANYWLGQLNYNKGKKDDAAYYFASVVKNYPKSPKAADAMFKVGVIMQDKGDTAKAKAVYQQVISKYPGTDGAKQAQKRLNAM
# notes: CpoB, E. coli, residues 139-263 (TPR domain), in pET28a with a thrombin cleavage site; In the PRE NMR one of the partners was 15N-labelled, the other spin labelled at random on lysines with OXYL-1-NHS; also called C-terminal TPR domain; source: E. coli BL21(DE3), purified (HisTrap, Superdex 200)
# Columns and labels:
# Settings in all cases: both partners purified
# [1] = molecular target: T1, PBP1B (wild type, PBP1B^46-844); assay: SPR; PBP1B versions immobilised to the chip surface; CpoB versions injected from either 3.9 nM to 2 μM or from 78 nM to 40 μM; apparent KD by non-linear regression, at least three independent experiments
# [2] = molecular target: B1; assay: paramagnetic relaxation enhancement (PRE) NMR; 100 µM 15N-labelled protein with the partner spin labelled at random on lysines, molar ratio 1:2, 2D HN-HSQC at 850 MHz, 20°C; intensity ratio before and after reduction with sodium ascorbate; done in both directions (15N-CpoB with spin labelled UB2H, 15N-UB2H with spin labelled CpoB)
# [3] = molecular target: T1, PBP1B (wild type, PBP1B^46-844); assay: SPR; PBP1B versions immobilised to the chip surface; CpoB versions injected from either 3.9 nM to 2 μM or from 78 nM to 40 μM; apparent KD by non-linear regression, at least three independent experiments; remark: listed apart in the source
binder,measurement,setting,value
B1,Kd,[1],4.9 µM
"UB2H domain of PBP1B (PBP1B^108–200) (domain or fragment, E. coli, UniProt P02919 108-200, looked up, PBP1B, E. coli, residues 108 to 200 (UB2H domain), in pET28a with a thrombin cleavage site; [13C,15N]- or 15N-labelled for NMR; in the reciprocal PRE experiment spin labelled at random on lysines with OXYL-1-NHS; source: E. coli BL21(DE3), isotopically labelled in M9 medium, purified (HisTrap, Superdex 200)) GRMVNLEPDMTISKNEMVKLLEATQYRQVSKMTRPGEFTVQANSIEMIRRPFDFPDSKEGQVRARLTFDGDHLATIVNMENNRQFGFFRLDPR",binding result,[2],binds
"CpoB^TPR+link (CpoB^110-263) (domain or fragment, E. coli, UniProt P45955 110-263, looked up, CpoB, E. coli, residues 110-263 (inter-domain linker and TPR domain), in pET28a with a thrombin cleavage site; also called CpoB^TPR version with this linker (res. 110–263); source: E. coli BL21(DE3), purified (HisTrap, Superdex 200)) STSGDQSGAAASTTPTADAGTANAGAPVKSGNANTDYNAAIALVQDKSRQDDAMVAFQNFIKNYPDSTYLPNANYWLGQLNYNKGKKDDAAYYFASVVKNYPKSPKAADAMFKVGVIMQDKGDTAKAKAVYQQVISKYPGTDGAKQAQKRLNAM",binding result,[3],binds
